In publication PMC5790919, “UDP-Glucuronic Acid Transport Is Required for Virulence of Cryptococcus neoformans” (mBio, 2018) one finds Km and kcat data, which are given here for 1 substance.

The test system of the series is O=C(O)[C@H]1O[C@H](OP(=O)(O)OP(=O)(O)OC[C@H]2O[C@@H](n3ccc(=O)[nH]c3=O)[C@H](O)[C@@H]2O)[C@H](O)[C@@H](O)[C@@H]1O. Description: cells, lysate or membranes. To be noted: proteoliposomes preloaded with 10 mM UMP (antiport), 2 min uptake; transport; kcat printed as turnover rate.

What is called Km is the concentration of substrate that gives half-maximal velocity. Broadly, the kcat is the maximal rate divided by the concentration of active sites. Regarding Uut1 (Cryptococcus neoformans H99), the Km turned out to be 0.6 ± 0.1 µM and the kcat came out at 0.08 s⁻¹.
